B1: 14-3-3-like protein GF14 phi (Arabidopsis thaliana (Mouse-ear cress)), P46077 (parent)
chain: MAAPPASSSAREEFVYLAKLAEQAERYEEMVEFMEKVAEAVDKDELTVEERNLLSVAYKNVIGARRASWRIISSIEQKEESRGNDDHVTTIRDYRSKIESELSKICDGILKLLDTRLVPASANGDSKVFYLKMKGDYHRYLAEFKTGQERKDAAEHTLTAYKAAQDIANAELAPTHPIRLGLALNFSVFYYEILNSPDRACNLAKQAFDEAIAELDTLGEESYKDSTLIMQLLRDNLTLWTSDMQDESPEEIKEAAAPKPAEEQKEI
partner: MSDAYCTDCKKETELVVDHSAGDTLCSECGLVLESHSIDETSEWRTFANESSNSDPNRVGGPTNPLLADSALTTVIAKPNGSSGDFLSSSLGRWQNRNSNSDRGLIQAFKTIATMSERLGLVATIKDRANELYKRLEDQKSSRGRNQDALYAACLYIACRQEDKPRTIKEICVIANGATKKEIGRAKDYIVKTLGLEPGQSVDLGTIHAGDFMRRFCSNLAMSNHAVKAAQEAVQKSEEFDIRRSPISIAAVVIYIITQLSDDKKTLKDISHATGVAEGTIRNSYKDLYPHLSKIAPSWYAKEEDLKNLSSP
B2: 14-3-3-like protein GF14 phi (Arabidopsis thaliana (Mouse-ear cress)), P46077 (parent)
chain: B1 chain
partner: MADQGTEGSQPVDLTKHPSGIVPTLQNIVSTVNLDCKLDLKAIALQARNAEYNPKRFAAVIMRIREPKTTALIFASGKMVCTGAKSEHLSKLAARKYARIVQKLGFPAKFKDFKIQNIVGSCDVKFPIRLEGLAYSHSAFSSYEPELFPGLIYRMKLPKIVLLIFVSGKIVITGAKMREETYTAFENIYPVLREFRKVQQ
B3: Transcription initiation factor IIB (Homo sapiens), Q00403 (parent)
chain: MASTSRLDALPRVTCPNHPDAILVEDYRAGDMICPECGLVVGDRVIDVGSEWRTFSNDKATKDPSRVGDSQNPLLSDGDLSTMIGKGTGAASFDEFGNSKYQNRRTMSSSDRAMMNAFKEITTMADRINLPRNIVDRTNNLFKQVYEQKSLKGRANDAIASACLYIACRQEGVPRTFKEICAVSRISKKEIGRCFKLILKALETSVDLITTGDFMSRFCSNLCLPKQVQMAATHIARKAVELDLVPGRSPISVAAAAIYMASQASAEKRTQKEIGDIAGVADVTIRQSYRLIYPRAPDLFPTDFKFDTPVDKLPQL
partner: B1 chain
B4: 14-3-3 protein epsilon (Homo sapiens), P62258 (parent)
chain: MDDREDLVYQAKLAEQAERYDEMVESMKKVAGMDVELTVEERNLLSVAYKNVIGARRASWRIISSIEQKEENKGGEDKLKMIREYRQMVETELKLICCDILDVLDKHLIPAANTGESKVFYYKMKGDYHRYLAEFATGNDRKEAAENSLVAYKAASDIAMTELPPTHPIRLGLALNFSVFYYEILNSPDRACRLAKAAFDDAIAELDTLSEESYKDSTLIMQLLRDNLTLWTSDMQGDGEEQNKEALQDVEDENQ

One experiment covers variants of B1. The following applies: with tf2b1_arath TFIIB1, P48512.
Turning to V188A;F189A, the “effect of a mutation on the interaction” value is “decreasing interaction”. Regarding F186A;S187A, the “effect of a mutation on the interaction” value is “disrupting interaction”. Turning to L184A;N185A, the “effect of a mutation on the interaction” value is “decreasing interaction”.

The variants in a further experiment derive from B2. As to conditions: with tbp2_arath TBP2, P28148.
With F186A;S187A, the “effect of a mutation on the interaction” value was “disrupting interaction”. The same measure, in the same setting: the entry for L184A;N185A is “decreasing interaction”; for V188A;F189A it is “decreasing interaction”.

Variants of B3 are the subject of the next experiment. The following applies: with 14334_arath GRF4, P46077.
On to R185E;R193E, for which the “effect of a mutation on the interaction” value is on record as “decreasing interaction”.

The variants in another experiment derive from B4. As to conditions: with tbp_human TBP.
Consider F177A;S178A, for which the “effect of a mutation on the interaction” value was “disrupting interaction”. L175A;N176A: the “effect of a mutation on the interaction” value was “decreasing interaction”. Take V179A;F180A: the “effect of a mutation on the interaction” value was “decreasing interaction”.
